Measurements from IntAct's records for PubMed 20691684.

B1: NSFL1 cofactor p47 (Rattus norvegicus (Rat)), O35987 (parent)
chain: MAEERQDALREFVAVTGAEEDRARFFLESAGWDLQIALASFYEDGGDEDIVTISQATPSSVSRGTAPSDNRVTSFRDLIHDQDEEEEEEEGQRFYAGGSERSGQQIVGPPRKKSPNELVDDLFKGAKEHGAVAVERVTKSPGETSKPRPFAGGGYRLGAAPEEESAYVAGERRRHSGQDVHVVLKLWKTGFSLDNGDLRSYQDPSNAQFLESIRRGEVPAELRRLAHGGQVNLDMEDHRDEDFVKPKGAFKAFTGEGQKLGSTAPQVLNTSSPAQQAENEAKASSSILINEAEPTTNIQIRLADGGRLVQKFNHSHRISDIRLFIVDARPAMAATSFVLMTTFPNKELADENQTLKEANLLNAVIVQRLT
B2: UBX domain-containing protein 2B (Mus musculus), Q0KL01 (parent)
chain: MAEGGRAEPEEQERGSSRPRPPSARDLQLALAELYEDEMKCKSSKPDRSTPATCRSPRTPPHRLYSGDHKYDGLHIVQPPTGKIVNELFKEAREHGAVPLNEATRSSREDKTKSFTGGGYRLGNSFYKRSEYIYGENQLQDVQVLLKLWRNGFSLDDGELRPYSDPTNAQFLESVKRGETPLELQRLVHGAQVNLDMEDHQDQEYIKPRLRFKAFSGEGQKLGSLTPEIVSTPSSPEEEDKSILNAAVLIDDSMPTTKIQIRLADGSRLVQRFNSTHRILDVRDFIVRSRPEFATTDFILVTSFPSKELTDETVTLQEADILNTVILQQLK

Variants of: B1
Details: with tera_rat Vcp
Target sequence in this assay (P46462 whole entry): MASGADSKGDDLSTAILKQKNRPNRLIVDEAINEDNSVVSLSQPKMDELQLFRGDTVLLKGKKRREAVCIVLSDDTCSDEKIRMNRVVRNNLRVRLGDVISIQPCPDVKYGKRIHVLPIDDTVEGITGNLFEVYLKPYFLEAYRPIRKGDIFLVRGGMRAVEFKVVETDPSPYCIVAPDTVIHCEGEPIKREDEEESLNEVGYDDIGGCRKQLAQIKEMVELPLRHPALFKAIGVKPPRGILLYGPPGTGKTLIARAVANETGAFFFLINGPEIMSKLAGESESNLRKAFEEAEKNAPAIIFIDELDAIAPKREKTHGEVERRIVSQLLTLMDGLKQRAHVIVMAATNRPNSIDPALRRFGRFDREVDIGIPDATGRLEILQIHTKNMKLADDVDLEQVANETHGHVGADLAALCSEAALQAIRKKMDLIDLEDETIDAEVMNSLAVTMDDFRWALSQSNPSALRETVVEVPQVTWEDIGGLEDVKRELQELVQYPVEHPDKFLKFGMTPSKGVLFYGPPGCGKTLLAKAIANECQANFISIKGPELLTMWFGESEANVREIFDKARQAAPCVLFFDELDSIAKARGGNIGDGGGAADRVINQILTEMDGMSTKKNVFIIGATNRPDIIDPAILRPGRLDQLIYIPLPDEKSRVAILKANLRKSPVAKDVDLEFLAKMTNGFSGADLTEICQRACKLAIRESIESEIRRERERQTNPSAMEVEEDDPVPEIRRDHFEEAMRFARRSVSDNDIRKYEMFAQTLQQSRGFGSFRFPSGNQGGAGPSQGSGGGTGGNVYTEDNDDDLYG

Row | effect of a mutation on the interaction | Variant
1 | disrupting interaction | MAEERQDALREFVAVTGAEEDRARFFLESAGWDLQIALASFYEDGGDEDIVTISQATPSSVSRGTAPSDNRVTSFRDLIHDQDEEEEEEEGQRFYAGGSERSGQQIVGPPRKKSPNELVDDLFKGAKEHGAVAVERVTKSPGETSKPRPFAGGGYRLGAAPEEESAYVAGERRRHSGQDVHVVLKLWKTGFSLDNGDLRSYQDPSNAQFLESIRRGEVPAELRRLAHGGQVNLDMEDHRDEDFVKPKGAFKASTGEGQKLGSTAPQVLNTSSPAQQAENEAKASSSILINEAEPTTNIQIRLADGGRLVQKFNHSHRISDIRLFIVDARPAMAATSFVLMTTFPNKELADENQTLKEANLLNAVIVQRLT [F253S]

Variants of: B1
Details: with tera_mouse Vcp

Row | effect of a mutation on the interaction | Variant
2 | disrupting interaction | MAEERQDALREFVAVTGAEEDRARFFLESAGWDLQIALASFYEDGGDEDIVTISQATPSSVSRGTAPSDNRVTSFRDLIHDQDEEEEEEEGQRFYAGGSERSGQQIVGPPRKKSPNELVDDLFKGAKEHGAVAVERVTKSPGETSKPRPFAGGGYRLGAAPEEESAYVAGERRRHSGQDVHVVLKLWKTGFSLDNGDLRSYQDPSNAQFLESIRRGEVPAELRRLAHGGQVNLDMEDHRDEDFVKPKGAFKASTGEGQKLGSTAPQVLNTSSPAQQAENEAKASSSILINEAEPTTNIQIRLADGGRLVQKFNHSHRISDIRLFIVDARPAMAATSFVLMTTFPNKELADENQTLKEANLLNAVIVQRLT [F253S]

Variants of: B2
Details: with tera_rat Vcp
Target sequence in this assay (P46462 whole entry): as the sequence (P46462 whole entry) above

Row | effect of a mutation on the interaction | Variant
3 | disrupting interaction | MAEGGRAEPEEQERGSSRPRPPSARDLQLALAELYEDEMKCKSSKPDRSTPATCRSPRTPPHRLYSGDHKYDGLHIVQPPTGKIVNELFKEAREHGAVPLNEATRSSREDKTKSFTGGGYRLGNSFYKRSEYIYGENQLQDVQVLLKLWRNGFSLDDGELRPYSDPTNAQFLESVKRGETPLELQRLVHGAQVNLDMEDHQDQEYIKPRLRFKASSGEGQKLGSLTPEIVSTPSSPEEEDKSILNAAVLIDDSMPTTKIQIRLADGSRLVQRFNSTHRILDVRDFIVRSRPEFATTDFILVTSFPSKELTDETVTLQEADILNTVILQQLK [F215S]
